3 molecules from patent US20140302055A1 can be followed below.

Usually Kd stands for a measure of binding affinity in units of concentration. Usually koff stands for the rate constant with which the complex falls apart. For orientation: kon means a measure of how fast the partners come together.

Assay [1] concerns the target Angiopoietin-like protein 4 (ANGPTL4), recombinant V5-his tagged secreted product (UniProt Q9BY76). The assay is described as follows: SPR (BiaCore 2000) medium resolution, mAb captured on goat anti-human surface, ANGPTL4 6-198 nM (593 nM left out of the fit), 1:1 model with mass transport. For orientation: SPR reads the build-up and loss of mass on a sensor chip optically.

Assay [2] shares this target. The assay is described as follows: SPR (BiaCore) low resolution, mAb captured on goat anti-human surface, ANGPTL4 at 292 nM, 25 C.

B1: anti-ANGPTL4 monoclonal antibody 1.7.3 (antibody, human IgG2, V domains shown)
VH: QVQLVESGGGVVQPGRSLRLSCAASGFTFSSYGIHWIRQAPGKGLEWVAVIWYDGSHKYYADSVKGRFTISRDNSKNTLYLQMNSLRAEDTAVYYCARDGITMVRGVLYYFYGMDVWGQGTTVTVSS
VL: DIQMTQSPSSLSASVGDRVTITCRASQGISNYLAWYQQKPGKVPKLLIYAASTLQSGVPSRFSGSGSGTDFTLTISSLQPEDFATYYCQEFNSAPLTFGGGTKVEIKR
Turning to B1, in assay [1], the equilibrium dissociation constant (Kd) stood at 7.9 nM, the koff worked out at 0.000786 s⁻¹ and the kon was 99800 M⁻¹ s⁻¹. For the same molecule, in assay [2], the equilibrium dissociation constant (Kd) was determined as 16 nM, the koff came out at 0.0011 s⁻¹ and the on-rate constant (kon) amounted to 67000 M⁻¹ s⁻¹.

B2: anti-ANGPTL4 monoclonal antibody 1.3.1 (antibody, part only; not given: light chain, human IgG2, V domains shown, part only)
VH: EVQLVESGGGLIQPGGSLRLSCAASGFTVSTNYMSWVRQAPGKGLDWVSIIYSDDNTYYADSVKGRFTISRDNSKNTLYLQMNSLRAEDSAVYYCAGTGTTDYYYGLDVWGLGTTVTVSSA
Turning to B2, in assay [2], the Kd was found to be 15 nM, the koff stood at 0.00071 s⁻¹ and the kon is 49000 M⁻¹ s⁻¹.

B3: anti-ANGPTL4 monoclonal antibody 1.10.2 (antibody, human IgG2, V domains shown)
VH: QVQLVQSGAEVKKPGASVKDSCKASGFTFTSYGISWVRQAPGQGLEWMGWISAYNGNKNYAQKLQGRVTMTTDTSTSTAYMELRSLRSDDTAVYYCARDDCSRASCSYYYGMDVWGQGTAVTVSS
VL: DIVMTQTPLSLAVTPGQPASISCKSSQSLLHSDRKTYLYWYLQKPGQPPQLLIYEVSNRFSGVPDRFSGSGSGTDFTLKISRVEAEDVGVYYCMQSIQLPWTFGQGTKVEIKR
In the case of B3, in assay [2], the dissociation constant (Kd) came out at 11 nM, the koff is 0.00068 s⁻¹ and the on-rate (kon) is 63000 M⁻¹ s⁻¹.
